Experimental data from patent US20230002732A1.

B1: ZMYM5 (protein, UniProt Q9UJ78 1-669, looked up)
chain: MEKCSVGGLELTEQTPALLGNMAMATSLMDIGDSFGHPACPLVSRSRNSPVEDDDDDDDVVFIESIQPPSISAPAIADQRNFIFASSKNEKPQGNYSVIPPSSRDLASQKGNISETIVIDDEEDIETNGGAEKKSSCFIEWGLPGTKNKTNDLDFSTSSLSRSKTKTGVRPFNPGRMNVAGDLFQNGEFATHHSPDSWISQSASFPSNQKQPGVDSLSPVALLRKQNFQPTAQQQLTKPAKITCANCKKPLQKGQTAYQRKGSAHLFCSTTCLSSFSHKRTQNTRSIICKKDASTKKANVILPVESSKSFQEFYSTSCLSPCENNWNLKKGVFNKSRCTICSKLAEIRHEVSVNNVTHKLCSNHCFNKYRLANGLIMNCCEHCGEYMPSKSTGNNILVIGGQQKRFCCQSCINEYKQMMETKSKKLTASENRKRNAFREENEKQLYGSSNTLLKKIEGIPEKKEKTSQLQLSVECGTDTLLIQENVNLPPSSTSTIADTFQEQLEEKNFEDSIVPVVLSADPGTWPRILNIKQRDTLVENVPPQVRNFNFPKDNTGRKFSETYYTRILPNGEKTTRSWLLYSTSKDSVFCLYCKLFGEGKNQLKNENGCKDWQHLSHILSKHEESEMHVNNSVKYSKLKSDLKKNKAIDAAEHRLYENEKNDGVLLLYT
B2: ZNF198 (protein, UniProt Q9UBW7 1-1377, looked up)
chain: MDTSSVGGLELTDQTPVLLGSTAMATSLTNVGNSFSGPANPLVSRSNKFQNSSVEDDDDVVFIEPVQPPPPSVPVVADQRTITFTSSKNEELQGNDSKITPSSKELASQKGSVSETIVIDDEEDMETNQGQEKNSSNFIERRPPETKNRTNDVDFSTSSFSRSKVNAGMGNSGITTEPDSEIQIANVTTLETGVSSVNDGQLENTDGRDMNLMITHVTSLQNTNLGDVSNGLQSSNFGVNIQTYTPSLTSQTKTGVGPFNPGRMNVAGDVFQNGESATHHNPDSWISQSASFPRNQKQPGVDSLSPVASLPKQIFQPSVQQQPTKPVKVTCANCKKPLQKGQTAYQRKGSAHLFCSTTCLSSFSHKPAPKKLCVMCKKDITTMKGTIVAQVDSSESFQEFCSTSCLSLYEDKQNPTKGALNKSRCTICGKLTEIRHEVSFKNMTHKLCSDHCFNRYRMANGLIMNCCEQCGEYLPSKGAGNNVLVIDGQQKRFCCQSCVSEYKQVGSHPSFLKEVRDHMQDSFLMQPEKYGKLTTCTGCRTQCRFFDMTQCIGPNGYMEPYCSTACMNSHKTKYAKSQSLGIICHFCKRNSLPQYQATMPDGKLYNFCNSSCVAKFQALSMQSSPNGQFVAPSDIQLKCNYCKNSFCSKPEILEWENKVHQFCSKTCSDDYKKLHCIVTYCEYCQEEKTLHETVNFSGVKRPFCSEGCKLLYKQDFARRLGLRCVTCNYCSQLCKKGATKELDGVVRDFCSEDCCKKFQDWYYKAARCDCCKSQGTLKERVQWRGEMKHFCDQHCLLRFYCQQNEPNMTTQKGPENLHYDQGCQTSRTKMTGSAPPPSPTPNKEMKNKAVLCKPLTMTKATYCKPHMQTKSCQTDDTWRTEYVPVPIPVPVYIPVPMHMYSQNIPVPTTVPVPVPVPVFLPAPLDSSEKIPAAIEELKSKVSSDALDTELLTMTDMMSEDEGKTETTNINSVIIETDIIGSDLLKNSDPETQSSMPDVPYEPDLDIEIDFPRAAEELDMENEFLLPPVFGEEYEEQPRPRSKKKGAKRKAVSGYQSHDDSSDNSECSFPFKYTYGVNAWKHWVKTRQLDEDLLVLDELKSSKSVKLKEDLLSHTTAELNYGLAHFVNEIRRPNGENYAPDSIYYLCLGIQEYLCGSNRKDNIFIDPGYQTFEQELNKILRSWQPSILPDGSIFSRVEEDYLWRIKQLGSHSPVALLNTLFYFNTKYFGLKTVEQHLRLSFGTVFRHWKKNPLTMENKACLRYQVSSLCGTDNEDKITTGKRKHEDDEPVFEQIENTANPSRCPVKMFECYLSKSPQNLNQRMDVFYLQPECSSSTDSPVWYTSTSLDRNTLENMLVRVLLVKDIYDKDNYELDEDTD
B3: PIAS3 (enzyme, UniProt Q9Y6X2 1-628, looked up)
chain: MAELGELKHMVMSFRVSELQVLLGFAGRNKSGRKHELLAKALHLLKSSCAPSVQMKIKELYRRRFPRKTLGPSDLSLLSLPPGTSPVGSPGPLAPIPPTLLAPGTLLGPKREVDMHPPLPQPVHPDVTMKPLPFYEVYGELIRPTTLASTSSQRFEEAHFTFALTPQQVQQILTSREVLPGAKCDYTIQVQLRFCLCETSCPQEDYFPPNLFVKVNGKLCPLPGYLPPTKNGAEPKRPSRPINITPLARLSATVPNTIVVNWSSEFGRNYSLSVYLVRQLTAGTLLQKLRAKGIRNPDHSRALIKEKLTADPDSEVATTSLRVSLMCPLGKMRLTVPCRALTCAHLQSFDAALYLQMNEKKPTWTCPVCDKKAPYESLIIDGLFMEILSSCSDCDEIQFMEDGSWCPMKPKKEASEVCPPPGYGLDGLQYSPVQGGDPSENKKKVEVIDLTIESSSDEEDLPPTKKHCSVTSAAIPALPGSKGVLTSGHQPSSVLRSPAMGTLGGDFLSSLPLHEYPPAFPLGADIQGLDLFSFLQTESQHYGPSVITSLDEQDALGHFFQYRGTPSHFLGPLAPTLGSSHCSATPAPPPGRVSSIVAPGGALREGHGGPLPSGPSLTGCRSDIISLD
B4: RNF111 (enzyme, UniProt Q6ZNA4 1-994, looked up)
chain: MSQWTPEYNELYTLKVDMKSEIPSDAPKTQESLKGILLHPEPIGAAKSFPAGVEMINSKVGNEFSHLCDDSQKQEKEMNGNQQEQEKSLVVRKKRKSQQAGPSYVQNCVKENQGILGLRQHLGTPSDEDNDSSFSDCLSSPSSSLHFGDSDTVTSDEDKEVSVRHSQTILNAKSRSHSARSHKWPRTETESVSGLLMKRPCLHGSSLRRLPCRKRFVKNNSSQRTQKQKERILMQRKKREVLARRKYALLPSSSSSSENDLSSESSSSSSTEGEEDLFVSASENHQNNPAVPSGSIDEDVVVIEASSTPQVTANEEINVTSTDSEVEIVTVGESYRSRSTLGHSRSHWSQGSSSHASRPQEPRNRSRISTVIQPLRQNAAEVVDLTVDEDEPTVVPTTSARMESQATSASINNSNPSTSEQASDTASAVTSSQPSTVSETSATLTSNSTTGTSIGDDSRRTTSSAVTETGPPAMPRLPSCCPQHSPCGGSSQNHHALGHPHTSCFQQHGHHFQHHHHHHHTPHPAVPVSPSFSDPACPVERPPQVQAPCGANSSSGTSYHEQQALPVDLSNSGIRSHGSGSFHGASAFDPCCPVSSSRAAIFGHQAAAAAPSQPLSSIDGYGSSMVAQPQPQPPPQPSLSSCRHYMPPPYASLTRPLHHQASACPHSHGNPPPQTQPPPQVDYVIPHPVHAFHSQISSHATSHPVAPPPPTHLASTAAPIPQHLPPTHQPISHHIPATAPPAQRLHPHEVMQRMEVQRRRMMQHPTRAHERPPPHPHRMHPNYGHGHHIHVPQTMSSHPRQAPERSAWELGIEAGVTAATYTPGALHPHLAHYHAPPRLHHLQLGALPLMVPDMAGYPHIRYISSGLDGTSFRGPFRGNFEELIHLEERLGNVNRGASQGTIERCTYPHKYKKVTTDWFSQRKLHCKQDGEEGTEEDTEEKCTICLSILEEGEDVRRLPCMHLFHQVCVDQWLITNKKCPICRVDIEAQLPSES
B5: C18orf25 (protein, UniProt Q96B23 1-404, looked up)
chain: MKMEEAVGKVEELIESEAPPKASEQETAKEEDGSVELESQVQKDGVADSTVISSMPCLLMELRRDSSESQLASTESDKPTTGRVYESDSSNHCMLSPSSSGHLADSDTLSSAEENEPSQAETAVEGDPSGVSGATVGRKSRRSRSESETSTMAAKKNRQSSDKQNGRVAKVKGHRSQKHKERIRLLRQKREAAARKKYNLLQDSSTSDSDLTCDSSTSSSDDDEEVSGSSKTITAEIPDGPPVVAHYDMSDTNSDPEVVNVDNLLAAAVVQEHSNSVGGQDTGATWRTSGLLEELNAEAGHLDPGFLASDKTSAGNAPLNEEINIASSDSEVEIVGVQEHARCVHPRGGVIQSVSSWKHGSGTQYVSTRQTQSWTAVTPQQTWASPAEVVDLTLDEDSRRKYLL
B6: ZBTB16 (protein, UniProt Q05516 1-673, looked up)
chain: MDLTKMGMIQLQNPSHPTGLLCKANQMRLAGTLCDVVIMVDSQEFHAHRTVLACTSKMFEILFHRNSQHYTLDFLSPKTFQQILEYAYTATLQAKAEDLDDLLYAAEILEIEYLEEQCLKMLETIQASDDNDTEATMADGGAEEEEDRKARYLKNIFISKHSSEESGYASVAGQSLPGPMVDQSPSVSTSFGLSAMSPTKAAVDSLMTIGQSLLQGTLQPPAGPEEPTLAGGGRHPGVAEVKTEMMQVDEVPSQDSPGAAESSISGGMGDKVEERGKEGPGTPTRSSVITSARELHYGREESAEQVPPPAEAGQAPTGRPEHPAPPPEKHLGIYSVLPNHKADAVLSMPSSVTSGLHVQPALAVSMDFSTYGGLLPQGFIQRELFSKLGELAVGMKSESRTIGEQCSVCGVELPDNEAVEQHRKLHSGMKTYGCELCGKRFLDSLRLRMHLLAHSAGAKAFVCDQCGAQFSKEDALETHRQTHTGTDMAVFCLLCGKRFQAQSALQQHMEVHAGVRSYICSECNRTFPSHTALKRHLRSHTGDHPYECEFCGSCFRDESTLKSHKRIHTGEKPYECNGCGKKFSLKHQLETHYRVHTGEKPFECKLCHQRSRDYSAMIKHLRTHNGASPYQCTICTEYCPSLSSMQKHMKGHKPEEIPPDWRIEKTYLYLCYV

system: E4bp4 (NFIL3), wild type; test: cell_activity; details: 3T3 cells, 48 h; transcriptional repression

Row | Molecule | activity (% decrease in luciferase)
1 | pGL3-E4bp4-CS reporter with three E4bp4 consensus binding sites | 50

target: E4bp4; test: yeast-two-hybrid screen, E4bp4 as bait; details: not given

Row | Positive clones | Molecule
2 | 2 clones | DSP (from UniProt P15924 1-2871)
3 | 1 clones | FLNA (from UniProt P21333 2-2647)
4 | 1 clones | RANBP2 (from UniProt P49792 1-3224) (enzyme)
5 | 2 clones | TLK2 (from UniProt Q86UE8 1-772) (enzyme)
6 | 2 clones | SNRP70 (from UniProt P08621 2-437)
7 | 5 clones | FLJ13057
8 | 1 clones | U5-200KD (from UniProt O75643 1-2136) (enzyme)
9 | 2 clones | SETX (from UniProt Q7Z333 1-2677) (enzyme)
10 | 20 clones | PIAS1 (from UniProt O75925 2-651)
11 | 5 clones | ZNF237
12 | 5 clones | HIPK3 (from UniProt Q9H422 1-1215) (enzyme)
13 | 1 clones | FLJ544447
14 | 1 clones | SORL1 (from UniProt Q92673 82-2214) (receptor)
15 | 1 clones | HIPK1 (from UniProt Q86Z02 1-1210) (enzyme)
16 | 1 clones | CHD1 (from UniProt O14646 1-1710)
17 | 5 clones | B1
18 | 5 clones | B2
19 | 2 clones | B3
20 | 1 clones | B4
21 | 1 clones | B5
22 | 1 clones | B6
